Source: patent publication US20210246166A1 (Bayer, published 2021)
Bridge positions count the residues as written; N and C are the ends. Square brackets hold non-standard residues; d marks the D form. Ends that are not written are not given here. (S)‑3‑(2H-tetrazol-5-yl)propanoic acid = (S)-3-(2H-tetrazol-5-yl)propanoic acid; Pro(4-spirocPr) = O=C(O)[C@@H]1CC2(CC2)CN1; Oic = O=C(O)[C@@H]1C[C@@H]2CCCC[C@@H]2N1; tBuAla = CC(C)(C)C[C@H](N)C(=O)O; Pen = CC(C)(S)[C@H](N)C(=O)O; NMeC = CN[C@@H](CS)C(=O)O; NMeA = CN[C@@H](C)C(=O)O; PEG2 = NCCOCCOCCC(=O)O; Sar = CNCC(=O)O

T1: recombinant human MASP1 active protease (amino acids 297-699, C-terminal His Tag) (human, UniProt P48740 297-699)
T1 sequence: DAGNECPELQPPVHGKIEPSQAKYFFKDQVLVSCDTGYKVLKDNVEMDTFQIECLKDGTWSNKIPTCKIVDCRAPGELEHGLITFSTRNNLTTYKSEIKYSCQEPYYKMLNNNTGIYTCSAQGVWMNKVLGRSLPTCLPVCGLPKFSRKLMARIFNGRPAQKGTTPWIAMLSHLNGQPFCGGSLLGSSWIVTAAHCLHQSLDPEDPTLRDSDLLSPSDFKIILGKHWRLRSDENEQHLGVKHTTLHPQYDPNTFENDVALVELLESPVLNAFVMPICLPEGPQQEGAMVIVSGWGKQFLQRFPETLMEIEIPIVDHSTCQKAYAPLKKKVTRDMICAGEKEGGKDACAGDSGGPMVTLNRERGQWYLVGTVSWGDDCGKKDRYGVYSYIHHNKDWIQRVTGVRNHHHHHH


Key:
[1] = molecular target: recombinant human MASP2 active protease (amino acids 297-686, C-terminal His Tag) (human, UniProt O00187 297-686); assay: cell-based or functional assay
Sequence of recombinant human MASP2 active protease (amino acids 297-686, C-terminal His Tag) (O00187 other isoform, or with tags, fused parts or gaps limits assumed): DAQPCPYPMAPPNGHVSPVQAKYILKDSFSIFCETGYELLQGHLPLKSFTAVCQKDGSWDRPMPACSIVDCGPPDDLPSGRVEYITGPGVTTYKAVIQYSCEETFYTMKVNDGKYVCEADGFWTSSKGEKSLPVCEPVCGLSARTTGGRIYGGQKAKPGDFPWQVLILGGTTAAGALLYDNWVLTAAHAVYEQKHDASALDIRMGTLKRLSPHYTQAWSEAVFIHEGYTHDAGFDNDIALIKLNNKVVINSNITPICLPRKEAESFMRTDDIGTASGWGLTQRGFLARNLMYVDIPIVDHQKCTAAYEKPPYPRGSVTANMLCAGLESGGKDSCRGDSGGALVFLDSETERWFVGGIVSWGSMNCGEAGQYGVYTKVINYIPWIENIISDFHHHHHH

[2] = molecular target: T1, recombinant human MASP1 active protease …; assay: cell-based or functional assay

Row | Binder | human MASP2 IC50 [1] [nM] | human MASP1 IC50 [2] [nM]
1 | RICSRS[tBuAla]PPI[NMeC]I-NH2 (disulfide 3-11; N-terminus assumed; SMILES CC[C@H](C)[C@H](NC(=O)[C@@H]1CSSC[C@H](NC(=O)[C@@H](NC(=O)[C@@H](N)CCCNC(=N)N)[C@@H](C)CC)C(=O)N[C@@H](CO)C(=O)N[C@@H](CCCNC(=N)N)C(=O)N[C@@H](CO)C(=O)N[C@@H](CC(C)(C)C)C(=O)N2CCC[C@H]2C(=O)N2CCC[C@H]2C(=O)N[C@@H]([C@@H](C)CC)C(=O)N1C)C(N)=O) [RIC+SRS-((tBu)A)-PPI-((N-Me)C)+I-NH2] | 87 | 1.7
2 | [NMeA]ICSRS[tBuAla]P[Oic]I[Pen]I-NH2 (disulfide 3-11; N-terminus assumed; SMILES CC[C@H](C)[C@H](NC(=O)[C@H]1NC(=O)[C@H]([C@@H](C)CC)NC(=O)[C@@H]2C[C@@H]3CCCC[C@@H]3N2C(=O)[C@@H]2CCCN2C(=O)[C@H](CC(C)(C)C)NC(=O)[C@H](CO)NC(=O)[C@H](CCCNC(=N)N)NC(=O)[C@H](CO)NC(=O)[C@@H](NC(=O)[C@@H](NC(=O)[C@H](C)NC)[C@@H](C)CC)CSSC1(C)C)C(N)=O) [((N-Me)A)-IC+SRS-((tBu)A)-P-(Oic)-I-(Pen)+I-NH2] | 76 | 1.8
3 | AICSRS[tBuAla]PPICI-NH2 (disulfide 3-11; N-terminus assumed; SMILES CC[C@H](C)[C@H](NC(=O)[C@@H]1CSSC[C@H](NC(=O)[C@@H](NC(=O)[C@H](C)N)[C@@H](C)CC)C(=O)N[C@@H](CO)C(=O)N[C@@H](CCCNC(=N)N)C(=O)N[C@@H](CO)C(=O)N[C@@H](CC(C)(C)C)C(=O)N2CCC[C@H]2C(=O)N2CCC[C@H]2C(=O)N[C@@H]([C@@H](C)CC)C(=O)N1)C(N)=O) [AIC+SRS-((tBu)A)-PPIC+I-NH2] | 120 | 1.7
4 | [Sar]ICSRS[tBuAla]PPI[Pen]IP[(S)‑3‑(2H-tetrazol-5-yl)propanoic acid]-NH2 (disulfide 3-11) [((N-Me)G)-IC+SRS-((tBu)A)-PPI-(Pen)+IP-((S)-3-(2H-tetrazol-5-yl)propanoic acid)-NH2] | 36 | 1.8
5 | AICSRS[tBuAla]P[Pro(4-spirocPr)]I[NMeC]IPD-NH2 (disulfide 3-11; N-terminus assumed; SMILES CC[C@H](C)[C@H](NC(=O)[C@H](C)N)C(=O)N[C@H]1CSSC[C@@H](C(=O)N[C@H](C(=O)N2CCC[C@H]2C(=O)N[C@@H](CC(=O)O)C(N)=O)[C@@H](C)CC)N(C)C(=O)[C@H]([C@@H](C)CC)NC(=O)[C@@H]2CC3(CC3)CN2C(=O)[C@@H]2CCCN2C(=O)[C@H](CC(C)(C)C)NC(=O)[C@H](CO)NC(=O)[C@H](CCCNC(=N)N)NC(=O)[C@H](CO)NC1=O) [AIC+SRS-((tBu)A)-P-((6S)-5-Azaspiro[2.4]heptane-6-carboxylic acid)-I-((N-Me)C)+IPD-NH2] | 40 | 1.8
6 | AICSRSLP[Pro(4-spirocPr)]I[Pen]IPD-OH (disulfide 3-11; N-terminus assumed; SMILES CC[C@H](C)[C@H](NC(=O)[C@H](C)N)C(=O)N[C@H]1CSSC(C)(C)[C@@H](C(=O)N[C@H](C(=O)N2CCC[C@H]2C(=O)N[C@@H](CC(=O)O)C(=O)O)[C@@H](C)CC)NC(=O)[C@H]([C@@H](C)CC)NC(=O)[C@@H]2CC3(CC3)CN2C(=O)[C@@H]2CCCN2C(=O)[C@H](CC(C)C)NC(=O)[C@H](CO)NC(=O)[C@H](CCCNC(=N)N)NC(=O)[C@H](CO)NC1=O) [AIC+SRSLP-((6S)-5-Azaspiro[2.4]heptane-6-carboxylic acid)-I-(Pen)+IPD-OH] | 26 | 1.65
7 | [Sar]ICSRS[tBuAla]PPI[Pen]IP[PEG2]-NH2 (disulfide 3-11; also: HCl salt) [((N-Me)G)-IC+SRS-((tBu)A)-PPI-(Pen)+IP-(PEG1(10 atoms))-NH2 (HCl salt)] | 31 | 1.7
